Data from paper PMC2734569, “Functional mapping of the fission yeast DNA polymerase δ B-subunit Cdc1 by site-directed and random pentapeptide insertion mutagenesis” (BMC Molecular Biology, 2009).
Where a chain is given by its changes, count along the chain named.

Tests used:
Test in all cases: two-hybrid; LexA-Cdc1 bait (pBTM116 or pBTM116BN) with Gal4 activation domain-Cdc27 prey (pGAD2F-Cdc27) in S. cerevisiae CTY10-5d; ONPG liquid culture beta-galactosidase assay, mean of triplicates, as percent of wild-type Cdc1
Conditions in all cases: partners not purified
[1] = target: T1, Cdc1-A2 (Schizosaccharomyces pombe, UniProt P87324 1-462, Gly293Ala)
T1 construct: Cdc1, S. pombe, point mutant; source: yeast two-hybrid fusion, in S. cerevisiae CTY10-5d
T1 sequence (looked up): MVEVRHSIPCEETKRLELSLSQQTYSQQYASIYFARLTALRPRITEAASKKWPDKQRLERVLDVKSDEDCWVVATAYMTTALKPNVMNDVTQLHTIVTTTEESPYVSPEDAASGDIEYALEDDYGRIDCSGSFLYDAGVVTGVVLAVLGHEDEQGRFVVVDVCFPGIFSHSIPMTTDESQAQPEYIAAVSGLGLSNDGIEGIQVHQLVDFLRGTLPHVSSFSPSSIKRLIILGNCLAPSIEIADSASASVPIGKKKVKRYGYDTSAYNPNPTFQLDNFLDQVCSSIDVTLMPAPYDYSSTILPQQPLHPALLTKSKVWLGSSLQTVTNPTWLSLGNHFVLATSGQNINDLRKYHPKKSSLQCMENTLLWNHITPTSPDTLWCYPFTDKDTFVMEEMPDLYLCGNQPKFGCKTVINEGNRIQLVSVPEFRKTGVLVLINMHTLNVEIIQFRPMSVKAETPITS

[2] = target: T2, Cdc1-J3 (Schizosaccharomyces pombe, UniProt P87324 1-462, Leu-GlyValProLeuLeu-Asp)
T2 construct: Cdc1, S. pombe, with a pentapeptide inserted after residue 62; also called E3; E8; source: yeast two-hybrid fusion, in S. cerevisiae CTY10-5d
T2 sequence (looked up): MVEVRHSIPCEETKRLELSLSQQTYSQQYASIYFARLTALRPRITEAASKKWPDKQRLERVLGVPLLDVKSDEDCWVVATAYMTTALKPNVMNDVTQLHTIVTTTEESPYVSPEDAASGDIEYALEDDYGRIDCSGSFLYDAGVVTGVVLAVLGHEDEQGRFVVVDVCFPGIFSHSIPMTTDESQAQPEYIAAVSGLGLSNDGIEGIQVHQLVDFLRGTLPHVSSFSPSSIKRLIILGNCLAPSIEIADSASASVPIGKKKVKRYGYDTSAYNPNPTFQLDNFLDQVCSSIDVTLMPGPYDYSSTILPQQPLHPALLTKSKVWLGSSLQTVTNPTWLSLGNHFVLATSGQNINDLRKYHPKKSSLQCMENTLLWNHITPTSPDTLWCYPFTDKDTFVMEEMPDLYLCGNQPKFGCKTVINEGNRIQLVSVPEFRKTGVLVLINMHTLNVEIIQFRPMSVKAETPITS

[3] = target: T3, Cdc1-J6 (Schizosaccharomyces pombe, UniProt P87324 1-462, Tyr-GlyValProHisTyr-Gly)
T3 construct: Cdc1, S. pombe, with a pentapeptide inserted after residue 124; source: yeast two-hybrid fusion, in S. cerevisiae CTY10-5d
T3 sequence (looked up): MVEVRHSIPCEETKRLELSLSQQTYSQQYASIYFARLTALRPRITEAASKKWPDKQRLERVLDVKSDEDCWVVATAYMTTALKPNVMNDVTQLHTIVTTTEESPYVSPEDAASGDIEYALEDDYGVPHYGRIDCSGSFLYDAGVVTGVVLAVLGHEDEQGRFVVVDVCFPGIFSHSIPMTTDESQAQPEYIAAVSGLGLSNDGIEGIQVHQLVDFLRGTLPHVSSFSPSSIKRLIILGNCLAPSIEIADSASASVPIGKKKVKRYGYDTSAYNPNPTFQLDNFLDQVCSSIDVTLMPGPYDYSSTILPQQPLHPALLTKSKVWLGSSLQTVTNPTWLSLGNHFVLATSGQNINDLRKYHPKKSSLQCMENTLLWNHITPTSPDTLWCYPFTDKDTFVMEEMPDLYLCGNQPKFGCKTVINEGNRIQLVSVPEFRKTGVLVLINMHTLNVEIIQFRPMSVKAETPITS

[4] = target: T4, Cdc1-A7 (Schizosaccharomyces pombe, UniProt P87324 1-462, Gly344Ala)
T4 construct: Cdc1, S. pombe, point mutant; source: yeast two-hybrid fusion, in S. cerevisiae CTY10-5d
T4 sequence (looked up): T1 sequence (looked up) with A293G, G344A

two-hybrid beta-galactosidase activity, % of wild-type Cdc1 [1]: 19%
two-hybrid beta-galactosidase activity, % of wild-type Cdc1 [2]: < 1%
two-hybrid beta-galactosidase activity, % of wild-type Cdc1 [3]: < 1%
two-hybrid beta-galactosidase activity, % of wild-type Cdc1 [4]: < 1%
B1: Cdc27 (fission yeast DNA polymerase delta C-subunit) (natural protein, Schizosaccharomyces pombe, UniProt P30261 1-372, looked up)
chain: MEEWRNFLDIKVINESSLVTVDNLSLQLDISSEKAQEYLNMFYQGNDFLYPIYLIHGQPIDDEINLEIDEESQPISNFPVLQYILCDKSSLQEKQSRLKSGYKTVIFALSSAPLSDFDELLPAVYEIREKDVLYKKEDADKYGFIFNENSVPRVLKKAPSTHSPQLSVPSKTSTIDKTDTRSTEKTKGKDIFSNARNQKGNSSRKNKKAPLENHKEKEPLLPKEEKLSEQAKRERDDLKNIMQLEDESVSTTSVHDSEDDNLDSNNFQLEIGTEAKSAAPDEPQEIIKSVSGGKRRGKRKVKKYATTKDEEGFLVTKEEEVWESFSEDENISTGTSNVVRNKPTTVNIATKKKNTAQSKPQQKSIMSFFGKK
notes: DNA polymerase delta C-subunit Cdc27, S. pombe; prey plasmid pGAD2F-Cdc27; also called pGAD2F-Cdc27; source: yeast two-hybrid fusion, in S. cerevisiae CTY10-5d
